Experiment [1] addresses soluble HLA-DR1 (HLA-DR alpha truncated after Asn192 with a C-terminal nine amino acid HA epitope tail; HLA-DR1 beta truncated after Lys198), made in Baculovirus-infected insect cells (human). The experiment is described as follows: release ELISA as Table 36; unlabeled hMBP(90-102) 250 uM alone against prebound biotin-hMBP(90-102) on tethered HLA-DR1.
The target is the same in experiment [2]. The experiment is described as follows: exchange ELISA: tethered HLA-DR1 preloaded with unlabeled hMBP(90-102) 50 uM, washed; biotin-hMBP(90-102) 50 uM alone, no AE peptide, 1 h 37 C. In general terms: An ELISA detects its analyte on a solid surface through an enzyme-linked reagent.
For experiment [3] the target is unchanged. The experiment is described as follows: release ELISA as Table 36; AE101 1 uM, without unlabeled hMBP(90-102).
Experiment [4] has the same target. The experiment is described as follows: loading ELISA: empty tethered HLA-DR1 with biotin-hMBP(90-102) 50 uM and AE peptide 64 uM, 1 h 37 C; biotin bound read by avidin-HRP.
The target is the same in experiment [5]. The experiment is described as follows: exchange ELISA: tethered HLA-DR1 preloaded with unlabeled hMBP(90-102) 50 uM, washed; AE peptide plus biotin-hMBP(90-102) 50 uM, 1 h 37 C; biotin bound as fraction of positive control (overnight loading).
Experiment [6] has the same target. The experiment is described as follows: release ELISA: soluble HLA-DR1 tethered by 12CA5 and preloaded with biotin-hMBP(90-102); AE peptide 64 uM, 1 h 37 C, no unlabeled peptide; biotin still bound read by avidin-HRP (1.0 = PBS control, 0.0 = no DR1; low value = released).

The molecule “unlabeled human myelin basic protein peptide hMBP(90-102) (from UniProt P02686 90-102)” displayed a Relative Release (fraction of positive control o.d.) in experiment [1] of 0.81.

“N-terminally biotin-labeled human myelin basic protein peptide hMBP(90-102) (from UniProt P02686 90-102)” came in with a Relative Binding (fraction of positive control o.d.) in experiment [2] of 0.08.

B1: AE101 (peptide)
peptide: YRMKLPKSAKPVSQMR
Take B1: the Relative Release (fraction of positive control o.d.) in experiment [3] was 0.02; in experiment [6] it was -0.33. Besides, the Relative Enhancement (of biotin-hMBP(90-102) binding to empty HLA-DR1) (relative to no AE peptide = 1) in experiment [4] came out at 2.66. Further, the Relative Binding (of biotin-hMBP(90-102) to HLA-DR1) (fraction of positive control o.d.) in experiment [5] was found to be 0.31.

For the origin of these results see patent US6835382B2, “Ii peptide therapeutics to enhance antigen presentation” (University of Massachusetts, priority 1996, dated 2004).
